In patent US20190248860A1 (Stanford University, published 2019):
Where a chain is given by its changes, count along the chain named.

Key:
[1] = biological target: T1, IL-2Rβ ectodomain (amino acids 1-214), recombinant (UniProt P14784 27-240); test: surface plasmon resonance
T1 construct: range 1-214; Used for the SPR and crystal entries; also called IL-2R13; interleukin 2 receptor beta
T1 sequence: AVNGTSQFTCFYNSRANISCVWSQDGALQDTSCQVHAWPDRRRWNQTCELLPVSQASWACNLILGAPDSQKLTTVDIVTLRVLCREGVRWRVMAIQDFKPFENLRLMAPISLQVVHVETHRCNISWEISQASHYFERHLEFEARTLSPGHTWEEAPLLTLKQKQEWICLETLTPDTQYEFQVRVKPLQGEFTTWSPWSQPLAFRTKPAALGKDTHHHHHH

[2] = biological target: T1, IL-2Rβ ectodomain (amino acids 1-214), …; test: method not given; SPR according to Example 10
[3] = biological target: T1, IL-2Rβ ectodomain (amino acids 1-214), …; test: SPR affinities, as told in the structural discussion
[4] = biological target: T2, biotinylated IL-2Rβ ectodomain (C-terminal biotin acceptor peptide and hexahistidine tag) (UniProt P14784 27-240, C-terminally biotinylated on the biotin acceptor peptide (coexpressed BirA ligase)); test: yeast display screen, labeling with 5 nM IL-2Rβ and then SAV-PE
T2 construct: range 1-214; Yeast staining reagent; in the second generation screen used as monomer, then detected with SAV-PE; also called tetrameric IL-2Rβ; monomeric IL-2Rβ
T2 sequence: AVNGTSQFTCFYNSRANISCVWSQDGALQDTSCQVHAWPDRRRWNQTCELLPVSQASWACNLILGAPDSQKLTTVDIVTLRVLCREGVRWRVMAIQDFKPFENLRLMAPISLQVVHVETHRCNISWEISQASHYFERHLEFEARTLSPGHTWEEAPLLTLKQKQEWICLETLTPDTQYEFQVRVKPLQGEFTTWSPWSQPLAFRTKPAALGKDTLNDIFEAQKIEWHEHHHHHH
Method: Upon conclusion of selections, round four and round five yeast cultures were spread on SD-CAA plates, which yielded individual yeast colonies. 48 individual yeast clones from both rounds were grown in 96-well block format and screened by labeling with 5 nM IL-2Rβ and then SAV-PE.

B1: IL-2 mutein C5 (ligand)
chain: APTSSSTKKTQLQLEHLLLDLQMILNGINNYKNPKLTRMLTFKFYMPKKATELKHLQCLEEELKHLEEVLNLANSKNFHVTPRDVVSNINVFVLELKGSETTFMCEYADETATIVEFLNRWITFCQSIISTLTHHHHHH
koff [1]: 0.016 s⁻¹
Kd [2]: 10 nM

B2: IL-2 mutein D10 (ligand)
chain: B1 chain with H65P, N74H, V80F, T81D
notes: also called IL-2 D10; super-2
fold affinity gain from wild-type IL-2 [3]: ~300 fold

B3: yeast-displayed IL-2 mutein C5 (ligand)
chain: APTSSSTKKTQLQLEHLLLDLQMILNGINNYKNPKLTRMLTFKFYMPKKATELKHLQCLEEELKHLEEVLNLANSKNFHVTPRDVVSNINVFVLELKGSETTFMCEYADETATIVEFLNRWITFCQSIISTLT
notes: Clone of the second generation yeast display library; also called C5 (yeast clone); not shown: yeast surface display fusion partner and linker encoded by vector pCT302
binding result [4]: binds
